Assay results: paper PMC8897274 (Structure (London, England : 1993), 2021)

T1: PCNA_(1–2-3) heterotrimer of S. solfataricus (S. solfataricus, UniProt P57766 1-249; Q97Z84 1-245; P57765 1-244)
T1 sequence 1: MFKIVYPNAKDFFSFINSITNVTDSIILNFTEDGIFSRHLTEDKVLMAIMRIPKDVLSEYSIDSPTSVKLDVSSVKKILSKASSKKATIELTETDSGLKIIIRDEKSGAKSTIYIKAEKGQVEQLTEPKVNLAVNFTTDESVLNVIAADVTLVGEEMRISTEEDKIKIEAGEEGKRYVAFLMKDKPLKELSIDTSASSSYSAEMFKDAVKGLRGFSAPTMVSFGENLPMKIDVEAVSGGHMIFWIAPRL
T1 sequence 2: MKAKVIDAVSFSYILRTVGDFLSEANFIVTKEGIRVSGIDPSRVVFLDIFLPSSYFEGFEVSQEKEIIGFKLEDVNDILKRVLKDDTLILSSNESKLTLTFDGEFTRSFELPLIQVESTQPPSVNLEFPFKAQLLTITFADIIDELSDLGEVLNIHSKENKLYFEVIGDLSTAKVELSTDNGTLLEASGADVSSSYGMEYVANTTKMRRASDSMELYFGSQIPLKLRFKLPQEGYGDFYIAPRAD
T1 sequence 3: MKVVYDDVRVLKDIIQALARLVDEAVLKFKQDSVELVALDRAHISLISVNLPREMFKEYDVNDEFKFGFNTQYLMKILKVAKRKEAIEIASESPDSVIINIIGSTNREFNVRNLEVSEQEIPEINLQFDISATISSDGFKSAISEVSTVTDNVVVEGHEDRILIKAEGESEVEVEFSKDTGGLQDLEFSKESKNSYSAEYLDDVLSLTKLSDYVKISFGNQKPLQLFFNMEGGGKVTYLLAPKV

T2: PCNA heterotrimer containing PCNA2 S42C (S. solfataricus, UniProt P57766 1-249; Q97Z84 1-245; P57765 1-244, S42C)
T2 sequence 1: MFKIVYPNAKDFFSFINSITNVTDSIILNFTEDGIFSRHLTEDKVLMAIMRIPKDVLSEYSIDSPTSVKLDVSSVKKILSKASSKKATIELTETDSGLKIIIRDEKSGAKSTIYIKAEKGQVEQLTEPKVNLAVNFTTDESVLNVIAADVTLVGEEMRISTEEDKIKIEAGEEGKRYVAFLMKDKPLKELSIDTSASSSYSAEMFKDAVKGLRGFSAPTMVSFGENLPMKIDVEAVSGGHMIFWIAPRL
T2 sequence 2: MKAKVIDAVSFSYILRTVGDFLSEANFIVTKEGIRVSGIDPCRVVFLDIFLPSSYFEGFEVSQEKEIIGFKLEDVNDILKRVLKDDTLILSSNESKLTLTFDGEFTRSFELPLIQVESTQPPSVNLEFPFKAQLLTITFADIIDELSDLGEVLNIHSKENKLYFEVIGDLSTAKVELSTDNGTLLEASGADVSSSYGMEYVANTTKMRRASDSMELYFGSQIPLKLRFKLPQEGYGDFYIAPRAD
T2 sequence 3: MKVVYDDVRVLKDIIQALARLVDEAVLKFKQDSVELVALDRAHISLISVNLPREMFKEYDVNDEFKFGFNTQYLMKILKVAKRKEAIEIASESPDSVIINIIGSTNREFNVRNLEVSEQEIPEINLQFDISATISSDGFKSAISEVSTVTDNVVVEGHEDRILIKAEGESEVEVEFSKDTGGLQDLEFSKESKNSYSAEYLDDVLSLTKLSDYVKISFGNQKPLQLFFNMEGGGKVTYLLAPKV

T3: PCNA1 subunit of S. solfataricus PCNA (S. solfataricus, UniProt P57766 1-249)
T3 sequence: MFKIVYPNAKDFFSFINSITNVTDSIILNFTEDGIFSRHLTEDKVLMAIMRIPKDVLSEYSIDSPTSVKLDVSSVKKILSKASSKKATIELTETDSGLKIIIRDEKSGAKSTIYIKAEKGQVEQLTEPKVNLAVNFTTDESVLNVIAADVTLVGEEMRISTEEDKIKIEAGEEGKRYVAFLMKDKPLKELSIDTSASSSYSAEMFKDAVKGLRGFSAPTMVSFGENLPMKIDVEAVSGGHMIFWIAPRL

B1: DNA ligase from S. solfataricus (Lig), wild type (enzyme)
chain: MEFKVIAEYFDKLEKISSRLQLTALLADLLSKSDKTIIDKVVYIIQGKLWPDFLGYPELGIGEKFLIKAISIATNTDENSVENLYKTIGDLGEVARRLKSKQQSTGILGFLGTTSKESLTVDEVYSTLSKVALTTGEGSRDLKIRLLAGLLKKADPLEAKFLVRFVEGRLRVGIGDATVLDAMAIAFGGGQSASEIIERAYNLRADLGNIAKIIVEKGIEALKTLKPQVGIPIRPMLAERLSNPEEILKKMGGNAIVDYKYDGERAQIHKKEDKIFIFSRRLENITSQYPDVVDYVSKYIEGKEFIIEGEIVAIDPESGEMRPFQELMHRKRKSDIYEAIKEYPVNVFLFDLMYYEDVDYTTKPLEARRKLLESIVKPNDYVKIAHHIQANNVEDLKSFFYRAISEGGEGVMVKAIGKDAIYQAGARGWLWIKLKRDYQSEMADTVDLVVVGGFYGKGKRGGKISSLLMAAYNPKTDSFESVCKVASGFSDEQLDELQKKLMEIKRDVKHPRVNSKMEPDIWVEPVYVAEIIGSEITISPLHTCCQDVVEKDAGLSIRFPRFIRWRDDKSPEDATTTDEILEMYNKQPKKKIESPAVDESV

Key:
[1] = target: T1, PCNA_(1–2-3) heterotrimer of S. …; assay: SEC-MALS
[2] = target: T2, PCNA heterotrimer containing PCNA2 S42C; assay: cross-linking
[3] = target: T1, PCNA_(1–2-3) heterotrimer of S. …; assay: SEC
[4] = target: T3, PCNA1 subunit of S. solfataricus PCNA; assay: cryo-EM structure
[5] = target: B1; assay: negative stain electron microscopy

Binder	binding result [2]	binding result [3]	other results
B1			stoichiometry N [1]: 1
Lig 337 Y-C mutant (enzyme, S. solfataricus) MEFKVIAEYFDKLEKISSRLQLTALLADLLSKSDKTIIDKVVYIIQGKLWPDFLGYPELGIGEKFLIKAISIATNTDENSVENLYKTIGDLGEVARRLKSKQQSTGILGFLGTTSKESLTVDEVYSTLSKVALTTGEGSRDLKIRLLAGLLKKADPLEAKFLVRFVEGRLRVGIGDATVLDAMAIAFGGGQSASEIIERAYNLRADLGNIAKIIVEKGIEALKTLKPQVGIPIRPMLAERLSNPEEILKKMGGNAIVDYKYDGERAQIHKKEDKIFIFSRRLENITSQYPDVVDYVSKYIEGKEFIIEGEIVAIDPESGEMRPFQELMHRKRKSDICEAIKEYPVNVFLFDLMYYEDVDYTTKPLEARRKLLESIVKPNDYVKIAHHIQANNVEDLKSFFYRAISEGGEGVMVKAIGKDAIYQAGARGWLWIKLKRDYQSEMADTVDLVVVGGFYGKGKRGGKISSLLMAAYNPKTDSFESVCKVASGFSDEQLDELQKKLMEIKRDVKHPRVNSKMEPDIWVEPVYVAEIIGSEITISPLHTCCQDVVEKDAGLSIRFPRFIRWRDDKSPEDATTTDEILEMYNKQPKKKIESPAVDESV	binds		
Lig 145 R-D mutant (enzyme, S. solfataricus) MEFKVIAEYFDKLEKISSRLQLTALLADLLSKSDKTIIDKVVYIIQGKLWPDFLGYPELGIGEKFLIKAISIATNTDENSVENLYKTIGDLGEVARRLKSKQQSTGILGFLGTTSKESLTVDEVYSTLSKVALTTGEGSRDLKIDLLAGLLKKADPLEAKFLVRFVEGRLRVGIGDATVLDAMAIAFGGGQSASEIIERAYNLRADLGNIAKIIVEKGIEALKTLKPQVGIPIRPMLAERLSNPEEILKKMGGNAIVDYKYDGERAQIHKKEDKIFIFSRRLENITSQYPDVVDYVSKYIEGKEFIIEGEIVAIDPESGEMRPFQELMHRKRKSDIYEAIKEYPVNVFLFDLMYYEDVDYTTKPLEARRKLLESIVKPNDYVKIAHHIQANNVEDLKSFFYRAISEGGEGVMVKAIGKDAIYQAGARGWLWIKLKRDYQSEMADTVDLVVVGGFYGKGKRGGKISSLLMAAYNPKTDSFESVCKVASGFSDEQLDELQKKLMEIKRDVKHPRVNSKMEPDIWVEPVYVAEIIGSEITISPLHTCCQDVVEKDAGLSIRFPRFIRWRDDKSPEDATTTDEILEMYNKQPKKKIESPAVDESV		binds	
Lig 145 R-L mutant (enzyme, S. solfataricus) MEFKVIAEYFDKLEKISSRLQLTALLADLLSKSDKTIIDKVVYIIQGKLWPDFLGYPELGIGEKFLIKAISIATNTDENSVENLYKTIGDLGEVARRLKSKQQSTGILGFLGTTSKESLTVDEVYSTLSKVALTTGEGSRDLKILLLAGLLKKADPLEAKFLVRFVEGRLRVGIGDATVLDAMAIAFGGGQSASEIIERAYNLRADLGNIAKIIVEKGIEALKTLKPQVGIPIRPMLAERLSNPEEILKKMGGNAIVDYKYDGERAQIHKKEDKIFIFSRRLENITSQYPDVVDYVSKYIEGKEFIIEGEIVAIDPESGEMRPFQELMHRKRKSDIYEAIKEYPVNVFLFDLMYYEDVDYTTKPLEARRKLLESIVKPNDYVKIAHHIQANNVEDLKSFFYRAISEGGEGVMVKAIGKDAIYQAGARGWLWIKLKRDYQSEMADTVDLVVVGGFYGKGKRGGKISSLLMAAYNPKTDSFESVCKVASGFSDEQLDELQKKLMEIKRDVKHPRVNSKMEPDIWVEPVYVAEIIGSEITISPLHTCCQDVVEKDAGLSIRFPRFIRWRDDKSPEDATTTDEILEMYNKQPKKKIESPAVDESV		binds	
Lig 338 E-C mutant (enzyme, S. solfataricus) MEFKVIAEYFDKLEKISSRLQLTALLADLLSKSDKTIIDKVVYIIQGKLWPDFLGYPELGIGEKFLIKAISIATNTDENSVENLYKTIGDLGEVARRLKSKQQSTGILGFLGTTSKESLTVDEVYSTLSKVALTTGEGSRDLKIRLLAGLLKKADPLEAKFLVRFVEGRLRVGIGDATVLDAMAIAFGGGQSASEIIERAYNLRADLGNIAKIIVEKGIEALKTLKPQVGIPIRPMLAERLSNPEEILKKMGGNAIVDYKYDGERAQIHKKEDKIFIFSRRLENITSQYPDVVDYVSKYIEGKEFIIEGEIVAIDPESGEMRPFQELMHRKRKSDIYCAIKEYPVNVFLFDLMYYEDVDYTTKPLEARRKLLESIVKPNDYVKIAHHIQANNVEDLKSFFYRAISEGGEGVMVKAIGKDAIYQAGARGWLWIKLKRDYQSEMADTVDLVVVGGFYGKGKRGGKISSLLMAAYNPKTDSFESVCKVASGFSDEQLDELQKKLMEIKRDVKHPRVNSKMEPDIWVEPVYVAEIIGSEITISPLHTCCQDVVEKDAGLSIRFPRFIRWRDDKSPEDATTTDEILEMYNKQPKKKIESPAVDESV	binds		
PCNA2 subunit of S. solfataricus PCNA (natural protein) MKAKVIDAVSFSYILRTVGDFLSEANFIVTKEGIRVSGIDPSRVVFLDIFLPSSYFEGFEVSQEKEIIGFKLEDVNDILKRVLKDDTLILSSNESKLTLTFDGEFTRSFELPLIQVESTQPPSVNLEFPFKAQLLTITFADIIDELSDLGEVLNIHSKENKLYFEVIGDLSTAKVELSTDNGTLLEASGADVSSSYGMEYVANTTKMRRASDSMELYFGSQIPLKLRFKLPQEGYGDFYIAPRAD			binding result [4]: binds; binding result [5]: binds
